Measurements reported in patent US20250361274A1, “PEPTIDE AND PEPTIDE-CONTAINING AGENT” (PEPTIDREAM INC., priority 2022, published 2025).
Numbered stars: 1 amine (or outer) side, 2 acyl side, 3 side chain; on linkers, the order of the positions; unused ones are H or OH. Bridge positions count the residues as written; N and C are the ends. Square brackets hold non-standard residues; d marks the D form. KCOpipzaa = N6-(4-(carboxymethyl)piperazine-1-carbonyl)-L-lysine, O=C(NCCCC[C@H](N[*:1])C(=O)[*:2])N1CCN(CC(=O)[*:3])CC1; Phe(4-guanidino) = N=C(N)Nc1ccc(C[C@H](N)C(=O)O)cc1; 3Pal(6-Ph) = N[C@@H](Cc1ccc(-c2ccccc2)nc1)C(=O)O; Phe(4-COOH) = N[C@@H](Cc1ccc(C(=O)O)cc1)C(=O)O; Bip = N[C@@H](Cc1ccc(-c2ccccc2)cc1)C(=O)O; 3Pal(6-NH2) = Nc1ccc(C[C@H](N)C(=O)O)cn1; hCit = NC(=O)NCCCC[C@H](N)C(=O)O; Aad = N[C@@H](CCCC(=O)O)C(=O)O; βAla = NCCC(=O)O

Tests used:
BMP7 = target: T1, BMP7 (Homo sapiens, UniProt P18075); test: BMP7 signal transduction inhibitory activity: SMAD1 phosphorylation by BMP7 stimulus, A549 cells; type: cell-based; conditions: inhibition of SMAD1 phosphorylation by BMP7 stimulus, A549 cells, ND
T1 sequence (P18075 293-431): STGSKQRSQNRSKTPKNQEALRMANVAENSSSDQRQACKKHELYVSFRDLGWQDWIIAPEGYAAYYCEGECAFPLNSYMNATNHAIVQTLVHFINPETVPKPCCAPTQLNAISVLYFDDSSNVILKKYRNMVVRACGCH
Procedure, shortened: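 SMAD1 phosphorylation readout in A549 cells stimulated with BMP7 (10 nM). Peptides were tested at three levels (e.g. 1/10/100, 10/100/1,000, 100/300/1,000, 10/30/90 nM) or at eight points, 1/3 steps, from 100 or 1,000 nM. Recombinant Noggin served as positive control at matching concentrations.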

BMP4 = target: T2, BMP4 (Homo sapiens, UniProt P12644); test: BMP4 signal transduction inhibitory activity: SMAD1 phosphorylation by BMP4 stimulus, AlphaLISA SureFire, A549 cells; type: cell-based; conditions: inhibition of SMAD1 phosphorylation by BMP4 stimulus, A549 cells, ND
T2 sequence (P12644 293-408): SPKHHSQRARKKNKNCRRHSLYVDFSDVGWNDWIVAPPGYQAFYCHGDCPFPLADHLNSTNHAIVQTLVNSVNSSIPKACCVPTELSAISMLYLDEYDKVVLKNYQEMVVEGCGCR

[1] = peptides of Synthesis 2, classes A-D
[2] = peptides of Synthesis 2, classes A-C
[3] = peptides of Synthesis 1, classes E, F
[4] = peptides of Synthesis 1, classes D-F

Substance	aLISA BMP7 (BMP7; [1])	aLISA BMP4 (BMP4; [2])	aLISA BMP7 (BMP7; [3])	aLISA BMP4 (BMP4; [4])
116 (EKVYVKRFPYPFYFFSCA; not fully specified; MOD_RES 2 K represents N6-(4-(Carboxymethyl) piperazine-1-carbonyl)-L-lysine(KCOpipzaa); MOD_RES 6 K represents N6-(4-(Carboxymethyl) piperazine-1-carbonyl)-L-lysine(KCOpipzaa); MOD_RES 8 F represents (S)-3-(1,1'-Biphenyl-4-yl)-2-aminopropanoic acid(Bph); MOD_RES 12 F represents (S)-3-(1,1'-Biphenyl-4-yl)-2-aminopropanoic acid(Bph); MOD_RES 14 F represents (S)-4-(2-amino-2-carboxyethyl)benzoic aci) [compound 116]	C (showed less than 50% of inhibitory activity in 10 nM-addition zone and showed 50% or more of inhibitory activity in 100 nM-addition zone)	A (showed an inhibitory activity of 50% or more in a zone to which the peptide was added to in an amount of 0.2 nM)	–	–
117 (EKVYVKRFPYPFYFFSCAE; not fully specified; MOD_RES 2 K represents N6-(4-(Carboxymethyl) piperazine-1-carbonyl)-L-lysine(KCOpipzaa); MOD_RES 6 K represents N6-(4-(Carboxymethyl) piperazine-1-carbonyl)-L-lysine(KCOpipzaa); MOD_RES 8 F represents (S)-3-(1,1'-Biphenyl-4-yl)-2-aminopropanoic acid(Bph); MOD_RES 12 F represents (S)-3-(1,1'-Biphenyl-4-yl)-2-aminopropanoic acid(Bph); MOD_RES 14 F represents (S)-4-(2-amino-2-carboxyethyl)benzoic aci) [compound 117]	C (showed less than 50% of inhibitory activity in 10 nM-addition zone and showed 50% or more of inhibitory activity in 100 nM-addition zone)	C (showed an inhibitory activity of less than 50% in 0.2 nM-addition zone and showed an inhibitory activity of 50% or more in 2 nM-addition zone were defined as B or C)	–	–
118 (EKVYVKRFPYPFYFFSCAE; not fully specified; MOD_RES 2 K represents N6-(4-(Carboxymethyl) piperazine-1-carbonyl)-L-lysine(KCOpipzaa); MOD_RES 6 K represents N6-(4-(Carboxymethyl) piperazine-1-carbonyl)-L-lysine(KCOpipzaa); MOD_RES 8 F represents (S)-3-(1,1'-Biphenyl-4-yl)-2-aminopropanoic acid(Bph); MOD_RES 12 F represents (S)-3-(1,1'-Biphenyl-4-yl)-2-aminopropanoic acid(Bph); MOD_RES 14 F represents (S)-4-(2-amino-2-carboxyethyl)benzoic aci) [compound 118]	C (showed less than 50% of inhibitory activity in 10 nM-addition zone and showed 50% or more of inhibitory activity in 100 nM-addition zone)	A (showed an inhibitory activity of 50% or more in a zone to which the peptide was added to in an amount of 0.2 nM)	–	–
120 ({CH2CO}-E[KCOpipzaa]VYV[KCOpipzaa]R[3Pal(6-Ph)]SYP[Bip]Y[Phe(4-COOH)][Phe(4-COOH)]SCG-NH2; thioether N-17; not fully specified) [compound 120]	ND (the inhibitory activity was less than 30% at the maximum concentration evaluated)	A (showed an inhibitory activity of 50% or more in a zone to which the peptide was added to in an amount of 0.2 nM)	–	–
121 ({CH2CO}-ERV[Phe(4-COOH)]VDR[Bip]PYP[Bip]Y[Phe(4-COOH)][Phe(4-COOH)]SC[βAla][dE]-OH; thioether N-17; not fully specified) [compound 121]	B (showed less than 50% of inhibitory activity in 1 nM-addition zone and showed 50% or more of inhibitory activity in 10 nM-addition zone)	A (showed an inhibitory activity of 50% or more in a zone to which the peptide was added to in an amount of 0.2 nM)	–	–
122 ({CH2CO}-ERV[Phe(4-COOH)]V[KCOpipzaa]R[Bip]PYP[Bip]Y[Phe(4-COOH)][Phe(4-COOH)]SC[βAla][dE]-OH; thioether N-17; not fully specified) [compound 122]	C (showed less than 50% of inhibitory activity in 10 nM-addition zone and showed 50% or more of inhibitory activity in 100 nM-addition zone)	A (showed an inhibitory activity of 50% or more in a zone to which the peptide was added to in an amount of 0.2 nM)	–	–
123 ({CH2CO}-ERV[Phe(4-COOH)]V[KCOpipzaa]R[Bip]PYV[Bip]Y[Phe(4-COOH)][Phe(4-COOH)]SC[βAla][dE]-OH; thioether N-17; not fully specified) [compound 123]	C (showed less than 50% of inhibitory activity in 10 nM-addition zone and showed 50% or more of inhibitory activity in 100 nM-addition zone)	A (showed an inhibitory activity of 50% or more in a zone to which the peptide was added to in an amount of 0.2 nM)	–	–
124 ({CH2CO}-ERV[Phe(4-COOH)]V[KCOpipzaa]R[Bip]SYV[Bip]Y[Phe(4-COOH)][Phe(4-COOH)]SC[βAla][dE]-OH; thioether N-17; not fully specified) [compound 124]	C (showed less than 50% of inhibitory activity in 10 nM-addition zone and showed 50% or more of inhibitory activity in 100 nM-addition zone)	A (showed an inhibitory activity of 50% or more in a zone to which the peptide was added to in an amount of 0.2 nM)	–	–
125 ({CH2CO}-E[Aad]VYVDR[Bip]PYV[Bip]Y[Phe(4-COOH)][Phe(4-COOH)]SCG-NH2; thioether N-17; not fully specified) [compound 125]	–	–	E (showed 50% or more of inhibitory activity in a zone to which the peptide was added in an amount of 10 nM)	E (showed less than 50% of inhibitory activity in 0.2 nM-addition zone and showed 50% or more of inhibitory activity in 2 nM-addition zone)
131 ({CH2CO}-ERVYDDR[Bip]PYV[Bip]Y[Phe(4-COOH)][Phe(4-COOH)]SCG-NH2; thioether N-17; not fully specified) [compound 131]	–	–	F (showed less than 50% of inhibitory activity in 10 nM-addition zone and showed 50% or more of inhibitory activity in 100 nM-addition zone)	D (showed 50% or more of inhibitory activity in 0.2 nM-addition zone)
132 ({CH2CO}-ERVYVSR[Bip]PYV[Bip]Y[Phe(4-COOH)][Phe(4-COOH)]SCG-NH2; thioether N-17; not fully specified) [compound 132]	–	–	ND (the inhibitory activity was less than 30% at the maximum concentration evaluated)	E (showed less than 50% of inhibitory activity in 0.2 nM-addition zone and showed 50% or more of inhibitory activity in 2 nM-addition zone)
133 ({CH2CO}-ERVYVD[3Pal(6-NH2)][Bip]PYV[Bip]Y[Phe(4-COOH)][Phe(4-COOH)]SCG-NH2; thioether N-17; not fully specified) [compound 133]	–	–	E (showed 50% or more of inhibitory activity in a zone to which the peptide was added in an amount of 10 nM)	E (showed less than 50% of inhibitory activity in 0.2 nM-addition zone and showed 50% or more of inhibitory activity in 2 nM-addition zone)
134 ({CH2CO}-ERVYVD[Phe(4-guanidino)][Bip]PYV[Bip]Y[Phe(4-COOH)][Phe(4-COOH)]SCG-NH2; thioether N-17; not fully specified) [compound 134]	–	–	E (showed 50% or more of inhibitory activity in a zone to which the peptide was added in an amount of 10 nM)	E (showed less than 50% of inhibitory activity in 0.2 nM-addition zone and showed 50% or more of inhibitory activity in 2 nM-addition zone)
135 ({CH2CO}-ERVYVD[hCit][Bip]PYV[Bip]Y[Phe(4-COOH)][Phe(4-COOH)]SCG-NH2; thioether N-17; not fully specified) [compound 135]	–	–	E (showed 50% or more of inhibitory activity in a zone to which the peptide was added in an amount of 10 nM)	E (showed less than 50% of inhibitory activity in 0.2 nM-addition zone and showed 50% or more of inhibitory activity in 2 nM-addition zone)
137 ({CH2CO}-ERVYVDR[Bip][hCit]YV[Bip]Y[Phe(4-COOH)][Phe(4-COOH)]SCG-NH2; thioether N-17; not fully specified) [compound 137]	–	–	E (showed 50% or more of inhibitory activity in a zone to which the peptide was added in an amount of 10 nM)	D (showed 50% or more of inhibitory activity in 0.2 nM-addition zone)
143 ({CH2CO}-ERVYVDR[Bip]PYY[Bip]Y[Phe(4-COOH)][Phe(4-COOH)]SCG-NH2; thioether N-17; not fully specified) [compound 143]	–	–	E (showed 50% or more of inhibitory activity in a zone to which the peptide was added in an amount of 10 nM)	D (showed 50% or more of inhibitory activity in 0.2 nM-addition zone)
145 ({CH2CO}-ERVYVDR[Bip]PY[hCit][Bip]Y[Phe(4-COOH)][Phe(4-COOH)]SCG-NH2; thioether N-17; not fully specified) [compound 145]	–	–	E (showed 50% or more of inhibitory activity in a zone to which the peptide was added in an amount of 10 nM)	D (showed 50% or more of inhibitory activity in 0.2 nM-addition zone)
